This series has as its target PARP2 WT (human, UniProt Q9UGN5 1-583). Description: fluorescence polarization; HPF1 not mentioned for this value; 10 mM HEPES pH 8.0, 150 mM NaCl, 0.1 mg/ml BSA, 0.1 mM TCEP, 0.1 mM EDTA, 25 C (FP). Conditions: protein: recombinant; tags: His6-TEV, tag cleaved; nicked dumbbell: two hairpins with TTTT loops, one strand. A general note: Fluorescence polarisation rises when a labelled molecule tumbles more slowly, as on binding a larger partner.

Broadly, the Kd is the concentration at which binding is half-saturated.

Sequence of PARP2 WT (Q9UGN5 whole entry): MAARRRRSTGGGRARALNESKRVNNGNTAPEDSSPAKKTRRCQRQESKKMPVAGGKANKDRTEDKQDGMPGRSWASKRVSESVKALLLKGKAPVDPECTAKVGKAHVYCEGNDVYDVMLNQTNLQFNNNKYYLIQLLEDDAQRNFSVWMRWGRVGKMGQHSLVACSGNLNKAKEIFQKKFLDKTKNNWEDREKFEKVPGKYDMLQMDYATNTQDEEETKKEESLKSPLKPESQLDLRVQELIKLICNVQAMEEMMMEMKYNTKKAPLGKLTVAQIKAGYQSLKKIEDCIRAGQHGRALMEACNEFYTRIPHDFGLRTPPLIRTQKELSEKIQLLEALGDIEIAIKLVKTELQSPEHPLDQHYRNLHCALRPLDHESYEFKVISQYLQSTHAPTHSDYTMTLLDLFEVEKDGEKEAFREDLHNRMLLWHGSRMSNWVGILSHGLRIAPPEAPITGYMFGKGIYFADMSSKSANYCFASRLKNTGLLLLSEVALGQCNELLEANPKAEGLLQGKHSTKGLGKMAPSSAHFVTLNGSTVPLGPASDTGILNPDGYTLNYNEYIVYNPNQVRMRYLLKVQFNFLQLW

Consider GGAAGTCTTTTGACTTCCTCGAAGCTTTTGCTTCGA (structured_DNA, 5'-phosphate) [fluorescein-labelled nicked dumbbell DNA, 5'-phosphate], for which the Kd turned out to be 4.8 ± 2.9 nM.
